Test results: paper PMC9599533

Target: α-subunit of the M. tuberculosis open gate 20S core particle (M. tuberculosis) (UniProt P9WHU1)
Assay: cryo-EM structure

Substance “α-subunit of the M. tuberculosis open gate 20S core particle (from UniProt P9WHU1 9-248) (domain or fragment)” has a stoichiometry N of 7.
